What was measured:
[1] = EV-201 laboratory abnormalities; type: in vivo, human
Procedure: The data described in this section reflect exposure to PADCEV from EV-201, a single arm study in patients (n=125) with locally advanced or metastatic urothelial cancer who had received prior treatment with a PD-1 or PD-L1 inhibitor and platinum-based chemotherapy. Patients received PADCEV 1.25 mg/kg on Days 1, 8 and 15 of a 28-day cycle until disease progression or unacceptable toxicity. The median duration of exposure to PADCEV was 4.6 months (range: 0.5-15.6). […]

191P4D12 = molecular target: T1, 191P4D12 (Homo sapiens, UniProt Q96NY8); assay: Comparability: analytical and biological characterization studies; conditions: binding affinity to 191P4D12, in vitro cytotoxicity, in vivo antitumor activity
T1 sequence (Q96NY8 32-510): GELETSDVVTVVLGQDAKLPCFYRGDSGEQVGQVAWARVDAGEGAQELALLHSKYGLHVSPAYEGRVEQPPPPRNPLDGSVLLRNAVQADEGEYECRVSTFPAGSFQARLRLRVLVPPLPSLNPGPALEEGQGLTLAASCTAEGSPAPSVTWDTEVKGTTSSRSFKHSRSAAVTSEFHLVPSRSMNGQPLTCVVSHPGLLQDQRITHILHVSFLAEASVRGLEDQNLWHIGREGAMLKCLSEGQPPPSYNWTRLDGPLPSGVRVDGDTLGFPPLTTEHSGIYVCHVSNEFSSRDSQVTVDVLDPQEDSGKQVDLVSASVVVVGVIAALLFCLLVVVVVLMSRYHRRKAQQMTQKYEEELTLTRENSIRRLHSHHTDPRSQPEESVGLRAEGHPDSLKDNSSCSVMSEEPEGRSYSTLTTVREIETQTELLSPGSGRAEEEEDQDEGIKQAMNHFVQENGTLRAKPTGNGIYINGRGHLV
Description: As described above and in U.S. Pat. No. 8,637,642, AGS-22M6E is an ADC derived from a murine hybridoma cell line. Enfortumab vedotin is the a Chinese hamster ovary (CHO) cell line-derived equivalent of AGS-22M6E ADC and is an exemplary product used for human treatment. Enfortumab vedotin has the same amino acid sequence, linker and cytotoxic drug as AGS-22M6E. The comparability between enfortumab vedotin and AGS-22M6E was confirmed through extensive analytical and biological characterization studies, such as binding affinity to 191P4D12, in vitro cytotoxicity, and in vivo antitumor activity.

[2] = Outcome of adverse reactions under the dose modification schedule; type: in vivo, human
Description: The results based on the dose modification schedule as provided are as follows.

[3] = Pooled safety in 310 patients (EV-201, EV-101, EV-102); type: in vivo, human
Procedure: Because clinical trials are conducted under widely varying conditions, adverse reaction rates observed in the clinical trials of a drug cannot be directly compared to rates in the clinical trials of another drug and may not reflect the rates observed in practice. The data in the WARNINGS AND PRECAUTIONS section reflect exposure to PADCEV as a single agent at 1.25 mg/kg in 310 patients in EV-201, EV-101 (NCT02091999), and EV-102 ([…]). Among 310 patients receiving PADCEV, 30% were exposed for ≥6 months and 8% were exposed for ≥12 months.

[4] = Cardiac electrophysiology (QTc); type: in vivo, human; conditions: at the recommended dose; large = >20 msec
[5] = EV-201, denominator 121 or 122 patients
[6] = among patients who experienced hyperglycemia
[7] = among patients who experienced it, dose modification schedule
[8] = 310 patients in clinical trials
[9] = 310 patients in clinical trials, 1.25 mg/kg

Substance: enfortumab vedotin-ejfv [PADCEV]
- Creatinine increased, Grade 3-4 [1, 5]: 2%
- Creatinine increased, Grades 2-4 [1, 5]: 20%
- Glucose increased, Grade 3-4 [1, 5]: 8%
- Hemoglobin decreased, Grade 3-4 [1, 5]: 10%
- Hemoglobin decreased, Grades 2-4 [1, 5]: 34%
- Leukocytes decreased, Grade 3-4 [1, 5]: 4%
- Leukocytes decreased, Grades 2-4 [1, 5]: 14%
- Lipase increased, Grade 3-4 [1, 5]: 9%
- Lipase increased, Grades 2-4 [1, 5]: 14%
- Lymphocytes decreased, Grade 3-4 [1, 5]: 10%
- Lymphocytes decreased, Grades 2-4 [1, 5]: 32%
- Neutrophils decreased, Grade 3-4 [1, 5]: 5%
- Neutrophils decreased, Grades 2-4 [1, 5]: 14%
- Phosphate decreased, Grade 3-4 [1, 5]: 10%
- Phosphate decreased, Grades 2-4 [1, 5]: 34%
- Sodium decreased, Grade 3-4 [1, 5]: 8%
- Sodium decreased, Grades 2-4 [1, 5]: 8%
- Urate increased, Grade 3-4 [1, 5]: 7%
- Urate increased, Grades 2-4 [1, 5]: 7%
- patients with non-fasting glucose >160-250 mg/dL ([1]; EV-201, fasting glucose not measured, 23 patients): ^†CTCAE Grade 2 is defined as fasting glucose >160-250 mg/dL. Fasting glucose levels were not measured in EV-201. However, 23 (19%) patients had non-fasting glucose >160-250 mg/dL.
- comparability between enfortumab vedotin and AGS-22M6E (191P4D12): confirmed
- hyperglycemia: complete resolution [2, 6]: 57%
- hyperglycemia: some improvement [2, 6]: 14%
- rash: complete resolution [2, 7]: 73%
- rash: patients with resolution or improvement [2, 7]: 93%
- rash: some improvement [2, 7]: 20%
- peripheral neuropathy: resolution or Grade 1 after the dose modification ([2]; among patients who experienced peripheral neuropathy): 76%
- ongoing rash that was Grade 1 ([2]; of those with ongoing rash): 75%
- blurred vision ([3]; 310 patients): 14%
- dry eye symptoms ([3]; 310 patients): 19%
- extravasation reactions with secondary cellulitis, bullae, or exfoliation ([3]; 310 patients): One
- median time to onset to symptomatic vision disorder ([3]; 310 patients): 3.1 months
- ocular disorders ([3]; 310 patients): 46%
- skin and soft tissue reactions secondary to extravasation ([3]; 310 patients): 1.3%
- Grade 3-4 skin reactions [3, 8]: 10%
- maculopapular rash [3, 8]: 26%
- pruritus [3, 8]: 30%
- skin reactions [3, 8]: 54%
- peripheral neuropathy Grade 3 reactions [3, 9]: 2%
- peripheral neuropathy, predominantly sensory [3, 9]: 49%
- differences in safety or effectiveness between patients 65 years or older and younger patients ([3]; 310 patients, 187 were 65 years or older, 80 were 75 years or older): No overall differences
- erythema, swelling, increased temperature and pain worsened until, after extravasation ([3]; infusion site extravasation): 2 to 7 days
- extravasation reactions resolved within, of peak ([3]; infusion site extravasation): 1-4 weeks
- incidence of Grade 3-4 hyperglycemia with higher body mass index and higher baseline A1C ([3]; patients treated with PADCEV): increased consistently
- QTc prolongation [4]: no large QTc prolongation

From patent publication US20230025600A1, “TREATMENT OF CANCERS WITH ANTIBODY DRUG CONJUGATES (ADC) THAT BIND TO 191P4D12 PROTEINS” (AGENSYS, INC., priority 2019, published 2023)
